Assay results as given in US20170190753A1 (LABORATOIRE FRANCAIS DU FRACTIONNEMENT ET DES …, published 2017).

B1: pCEP4-1NT8-19CT20 (other)
chain: EDCNELPPRRNTEILTGSWSDQTYPEGTQAIYKCRPGYRSLGNVIMVCRKGEWVALNPLRKCQKRPCGHPGDTPFGTFTLTGGNVFEYGVKAVYTCNEGYQLLGEINYRECDTDGWTNDIPICEVVKCLPVTAPENGKIVSSAMEPDREYHFGQAVRFVCNSGYKIEGDEEMHCSDDGFWSKEKPKCVEISCKSPDVINGSPISQKIIYKENERFQYKCNMGYEYSERGDAVCTESGWRPLPSCEEKSCDNPYIPNGDYSPLRIKHRTGDEITYQCRNGFYPATRGNTAKCTSTGWIPAPRCTLKPCDYPDIKHGGLYHENMRRPYFPVAVGKYYSYYCDEHFETPSGSYWDHIHCTQDGWSPAVPCLRKCYFPYLENGYNQNYGRKFVQGKSIDVACHPGYALPKAQTTVTCMENGWSPTPRCIRVKTCSKSSIDIENGFISESQYTYALKEKAKYQCKLGYVTADGETSGSITCGKDGWSAQPTCIKSGASGCGPPPPIDNGDITSFPLSVYAPASSVEYQCQNLYQLEGNKRITCRNGQWSEPPKCLHPCVISREIMENYNIALRWTAKQKLYSRTGESVEFVCKRGYRLSSRSHTLRTTCWDGKLEYPTCAKRGGSGHHHHHH
B2: pCEP4-1NT11-19CT20 (other)
chain: EDCNELPPRRNTEILTGSWSDQTYPEGTQAIYKCRPGYRSLGNVIMVCRKGEWVALNPLRKCQKRPCGHPGDTPFGTFTLTGGNVFEYGVKAVYTCNEGYQLLGEINYRECDTDGWTNDIPICEVVKCLPVTAPENGKIVSSAMEPDREYHFGQAVRFVCNSGYKIEGDEEMHCSDDGFWSKEKPKCVEISCKSPDVINGSPISQKIIYKENERFQYKCNMGYEYSERGDAVCTESGWRPLPSCEEKSCDNPYIPNGDYSPLRIKHRTGDEITYQCRNGFYPATRGNTAKCTSTGWIPAPRCTLKPCDYPDIKHGGLYHENMRRPYFPVAVGKYYSYYCDEHFETPSGSYWDHIHCTQDGWSPAVPCLRKCYFPYLENGYNQNHGRKFVQGKSIDVACHPGYALPKAQTTVTCMENGWSPTPRCIRVKTCSKSSIDIENGFISESQYTYALKEKAKYQCKLGYVTADGETSGSITCGKDGWSAQPTCIKSCDIPVFMNARTKNDFTWFKLNDTLDYECHDGYESNTGSTTGSIVCGYNGWSDLPICYERECELPKIDVHLVPDRKKDQYKVGEVLKFSCKPGFTIVGPNSVQCYHFGLSPDLPICKEQVQSCGPPPELLNGNVKEKTKEEYGHSEVVEYYCNPRFLMKGPNKIQCVDGEWTTLPVCIVEESTGASGCGPPPPIDNGDITSFPLSVYAPASSVEYQCQNLYQLEGNKRITCRNGQWSEPPKCLHPCVISREIMENYNIALRWTAKQKLYSRTGESVEFVCKRGYRLSSRSHTLRTTCWDGKLEYPTCAKRGGSGHHHHHH
B3: pCEP4-1NT10-19CT20 (other)
chain: EDCNELPPRRNTEILTGSWSDQTYPEGTQAIYKCRPGYRSLGNVIMVCRKGEWVALNPLRKCQKRPCGHPGDTPFGTFTLTGGNVFEYGVKAVYTCNEGYQLLGEINYRECDTDGWTNDIPICEVVKCLPVTAPENGKIVSSAMEPDREYHFGQAVRFVCNSGYKIEGDEEMHCSDDGFWSKEKPKCVEISCKSPDVINGSPISQKIIYKENERFQYKCNMGYEYSERGDAVCTESGWRPLPSCEEKSCDNPYIPNGDYSPLRIKHRTGDEITYQCRNGFYPATRGNTAKCTSTGWIPAPRCTLKPCDYPDIKHGGLYHENMRRPYFPVAVGKYYSYYCDEHFETPSGSYWDHIHCTQDGWSPAVPCLRKCYFPYLENGYNQNHGRKFVQGKSIDVACHPGYALPKAQTTVTCMENGWSPTPRCIRVKTCSKSSIDIENGFISESQYTYALKEKAKYQCKLGYVTADGETSGSITCGKDGWSAQPTCIKSCDIPVFMNARTKNDFTWFKLNDTLDYECHDGYESNTGSTTGSIVCGYNGWSDLPICYERECELPKIDVHLVPDRKKDQYKVGEVLKFSCKPGFTIVGPNSVQCYHFGLSPDLPICKEQVQSGASGCGPPPPIDNGDITSFPLSVYAPASSVEYQCQNLYQLEGNKRITCRNGQWSEPPKCLHPCVISREIMENYNIALRWTAKQKLYSRTGESVEFVCKRGYRLSSRSHTLRTTCWDGKLEYPTCAKRGGSGHHHHHH
B4: pCEP4-1NT9-15CT20 (other)
chain: EDCNELPPRRNTEILTGSWSDQTYPEGTQAIYKCRPGYRSLGNVIMVCRKGEWVALNPLRKCQKRPCGHPGDTPFGTFTLTGGNVFEYGVKAVYTCNEGYQLLGEINYRECDTDGWTNDIPICEVVKCLPVTAPENGKIVSSAMEPDREYHFGQAVRFVCNSGYKIEGDEEMHCSDDGFWSKEKPKCVEISCKSPDVINGSPISQKIIYKENERFQYKCNMGYEYSERGDAVCTESGWRPLPSCEEKSCDNPYIPNGDYSPLRIKHRTGDEITYQCRNGFYPATRGNTAKCTSTGWIPAPRCTLKPCDYPDIKHGGLYHENMRRPYFPVAVGKYYSYYCDEHFETPSGSYWDHIHCTQDGWSPAVPCLRKCYFPYLENGYNQNYGRKFVQGKSIDVACHPGYALPKAQTTVTCMENGWSPTPRCIRVKTCSKSSIDIENGFISESQYTYALKEKAKYQCKLGYVTADGETSGSITCGKDGWSAQPTCIKSCDIPVFMNARTKNDFTWFKLNDTLDYECHDGYESNTGSTTGSIVCGYNGWSDLPICYEREGASGCSQPPQIEHGTINSSRSSQESYAHGTKLSYTCEGGFRISEENETTCYMGKWSSPPQCEGLPCKSPPEISHGVVAHMSDSYQYGEEVTYKCFEGFGIDGPAIAKCLGEKWSHPPSCIKTDCLSLPSFENAIPMGEKKDVYKAGEQVTYTCATYYKMDGASNVTCINSRWTGRPTCRDTSCVNPPTVQNAYIVSRQMSKYPSGERVRYQCRSPYEMFGDEEVMCLNGNWTEPPQCKDSTGKCGPPPPIDNGDITSFPLSVYAPASSVEYQCQNLYQLEGNKRITCRNGQWSEPPKCLHPCVISREIMENYNIALRWTAKQKLYSRTGESVEFVCKRGYRLSSRSHTLRTTCWDGKLEYPTCAKRGGSGHHHHHH
B5: pCEP4-1NT8-12CT20 (other)
chain: EDCNELPPRRNTEILTGSWSDQTYPEGTQAIYKCRPGYRSLGNVIMVCRKGEWVALNPLRKCQKRPCGHPGDTPFGTFTLTGGNVFEYGVKAVYTCNEGYQLLGEINYRECDTDGWTNDIPICEVVKCLPVTAPENGKIVSSAMEPDREYHFGQAVRFVCNSGYKIEGDEEMHCSDDGFWSKEKPKCVEISCKSPDVINGSPISQKIIYKENERFQYKCNMGYEYSERGDAVCTESGWRPLPSCEEKSCDNPYIPNGDYSPLRIKHRTGDEITYQCRNGFYPATRGNTAKCTSTGWIPAPRCTLKPCDYPDIKHGGLYHENMRRPYFPVAVGKYYSYYCDEHFETPSGSYWDHIHCTQDGWSPAVPCLRKCYFPYLENGYNQNYGRKFVQGKSIDVACHPGYALPKAQTTVTCMENGWSPTPRCIRVKTCSKSSIDIENGFISESQYTYALKEKAKYQCKLGYVTADGETSGSITCGKDGWSAQPTCIKSGASGCGDIPELEHGWAQLSSPPYYYGDSVEFNCSESFTMIGHRSITCIHGVWTQLPQCVAIDKLKKCKSSNLIILEEHLKNKKEFDHNSNIRYRCRGKEGWIHTVCINGRWDPEVNCSMAQIQLCPPPPQIPNSHNMTTTLNYRDGEKVSVLCQENYLIQEGEEITCKDGRWQSIPLCVEKIPCSQPPQIEHGTINSSRSSQESYAHGTKLSYTCEGGFRISEENETTCYMGKWSSPPQCEGLPCKSPPEISHGVVAHMSDSYQYGEEVTYKCFEGFGIDGPAIAKCLGEKWSHPPSCIKTDCLSLPSFENAIPMGEKKDVYKAGEQVTYTCATYYKMDGASNVTCINSRWTGRPTCRDTSCVNPPTVQNAYIVSRQMSKYPSGERVRYQCRSPYEMFGDEEVMCLNGNWTEPPQCKDSTGKCGPPPPIDNGDITSFPLSVYAPASSVEYQCQNLYQLEGNKRITCRNGQWSEPPKCLHPCVISREIMENYNIALRWTAKQKLYSRTGESVEFVCKRGYRLSSRSHTLRTTCWDGKLEYPTCAKRGGSGHHHHHH

Biological target: C3 convertase complex (UniProt P01024 23-1663; P00751 260-764)
Assay: cell-based or functional assay
Throughout, for C3 convertase activity % of the control: test concentration or dose not given here.

Sequence of C3 convertase complex (P01024 23-1663, chain 1 of 2): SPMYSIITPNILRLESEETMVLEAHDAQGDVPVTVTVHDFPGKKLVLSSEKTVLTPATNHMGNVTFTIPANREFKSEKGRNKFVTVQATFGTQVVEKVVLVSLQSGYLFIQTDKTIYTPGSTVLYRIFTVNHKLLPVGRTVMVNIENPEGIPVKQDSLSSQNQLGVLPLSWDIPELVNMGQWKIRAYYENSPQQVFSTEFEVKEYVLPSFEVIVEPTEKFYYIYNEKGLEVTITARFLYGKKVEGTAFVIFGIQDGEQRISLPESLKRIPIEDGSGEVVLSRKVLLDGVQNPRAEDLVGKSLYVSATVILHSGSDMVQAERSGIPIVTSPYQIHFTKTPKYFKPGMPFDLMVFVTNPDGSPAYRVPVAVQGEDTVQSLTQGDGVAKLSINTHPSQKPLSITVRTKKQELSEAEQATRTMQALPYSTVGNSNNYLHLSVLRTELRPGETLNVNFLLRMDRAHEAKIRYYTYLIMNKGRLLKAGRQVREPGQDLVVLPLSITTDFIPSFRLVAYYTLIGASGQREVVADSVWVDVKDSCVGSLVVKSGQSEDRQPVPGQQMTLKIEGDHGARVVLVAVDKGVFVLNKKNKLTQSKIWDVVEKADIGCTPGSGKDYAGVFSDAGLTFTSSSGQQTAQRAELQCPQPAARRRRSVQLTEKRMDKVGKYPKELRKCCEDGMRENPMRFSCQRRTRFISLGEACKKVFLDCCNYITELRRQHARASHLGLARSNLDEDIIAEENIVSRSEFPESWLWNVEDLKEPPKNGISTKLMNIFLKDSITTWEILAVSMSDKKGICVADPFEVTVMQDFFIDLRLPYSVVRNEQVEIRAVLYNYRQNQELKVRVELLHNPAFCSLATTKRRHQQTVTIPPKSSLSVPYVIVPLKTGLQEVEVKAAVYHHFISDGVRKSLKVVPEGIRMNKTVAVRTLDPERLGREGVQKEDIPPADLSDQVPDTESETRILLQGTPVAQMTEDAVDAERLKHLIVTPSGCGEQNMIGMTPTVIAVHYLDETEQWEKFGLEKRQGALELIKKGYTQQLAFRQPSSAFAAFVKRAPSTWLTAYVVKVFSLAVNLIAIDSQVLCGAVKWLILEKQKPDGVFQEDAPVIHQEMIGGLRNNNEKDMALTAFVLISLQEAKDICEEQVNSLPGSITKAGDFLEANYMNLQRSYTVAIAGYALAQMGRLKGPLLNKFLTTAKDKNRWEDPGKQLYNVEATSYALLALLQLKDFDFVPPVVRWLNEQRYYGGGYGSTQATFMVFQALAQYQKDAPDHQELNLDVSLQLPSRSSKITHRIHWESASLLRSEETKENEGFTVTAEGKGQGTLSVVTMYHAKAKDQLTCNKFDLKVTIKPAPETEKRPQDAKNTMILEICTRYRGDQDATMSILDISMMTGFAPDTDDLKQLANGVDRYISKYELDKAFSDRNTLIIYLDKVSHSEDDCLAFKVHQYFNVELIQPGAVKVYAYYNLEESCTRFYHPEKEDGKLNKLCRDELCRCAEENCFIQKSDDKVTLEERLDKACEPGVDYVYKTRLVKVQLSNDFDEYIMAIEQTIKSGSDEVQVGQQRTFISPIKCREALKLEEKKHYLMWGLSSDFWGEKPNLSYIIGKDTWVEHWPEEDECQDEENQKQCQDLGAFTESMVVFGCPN
Sequence of C3 convertase complex (P00751 260-764, chain 2 of 2): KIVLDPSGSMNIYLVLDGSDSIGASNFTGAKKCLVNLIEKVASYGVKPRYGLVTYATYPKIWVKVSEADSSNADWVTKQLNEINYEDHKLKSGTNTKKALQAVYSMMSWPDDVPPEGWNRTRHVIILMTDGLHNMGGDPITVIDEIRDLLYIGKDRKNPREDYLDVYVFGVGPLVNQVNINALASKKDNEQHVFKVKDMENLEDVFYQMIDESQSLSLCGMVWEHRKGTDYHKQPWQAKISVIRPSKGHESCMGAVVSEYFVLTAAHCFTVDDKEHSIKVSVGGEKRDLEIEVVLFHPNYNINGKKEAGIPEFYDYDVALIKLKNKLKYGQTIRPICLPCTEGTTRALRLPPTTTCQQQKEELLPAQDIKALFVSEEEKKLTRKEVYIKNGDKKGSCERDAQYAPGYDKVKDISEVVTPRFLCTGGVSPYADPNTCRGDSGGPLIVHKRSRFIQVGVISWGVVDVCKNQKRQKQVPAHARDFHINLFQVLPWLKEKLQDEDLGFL

Row | Binder | C3 convertase activity % of the control | C3 convertase activity IC50
1 | B1 | 0 % of the control | 493 mg/L
2 | B2 | 5 % of the control | 1.78 mg/L
3 | B3 | 1 % of the control | 6.05 mg/L
4 | B4 | 5 % of the control | 2.19 mg/L
5 | B5 | 4 % of the control | 1.87 mg/L
